Experimental data from PMC2018632 (Nucleic Acids Research, 2007).

Molecular target: T1, Escherichia coli uracil-DNA glycosylase (Escherichia coli, UniProt P12295 1-229)
T1 sequence: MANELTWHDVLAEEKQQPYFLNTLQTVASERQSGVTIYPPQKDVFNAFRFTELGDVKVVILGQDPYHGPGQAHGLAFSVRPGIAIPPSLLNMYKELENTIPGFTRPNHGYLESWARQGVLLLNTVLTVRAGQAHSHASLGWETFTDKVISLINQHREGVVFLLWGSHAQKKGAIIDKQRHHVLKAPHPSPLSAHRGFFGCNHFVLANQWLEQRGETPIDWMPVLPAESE
Test: native gel or EMSA

B1: Ugi from the Bacillus subtilis phage PBS2 (natural protein)
chain: MTNLSDIIEKETGKQLVIQESILMLPEEVEEVIGNKPESDILVHTAYDESTDENVMLLTSDAPEYKPWALVIQDSNGENKIKML
B1: binds.
